Data published in US20190248902A1 (published 2019).
Changes are numbered by the printed parent chain.

B1: 218G4 (antibody, V domains shown)
VH: QVQLVESGGGVVQPGRSLRLSCAASGFTFSSYGLHWVRQAPGKGLEWVAVIWYDGSNKYYADSVKGRFTISRDNSKNTLYLQMNSLRVEDTAVYYCANWYYYYYGMDVWGQGTTVTVSS
VL: QSVLTQPPSVSAAPGQKVTISCSGSSSNIGNNYVSWYQQLPGTAPKLLLYDSNKRPSGIPARFSGSKSGTSATLGITGLQTGDEADYYCGTWDSSLNTVVFGGGTKLTVL
notes: mAb
B2: 75G3 (antibody, V domains shown)
VH: QVQLQQWGAGLLKPSETLSLTCAVYGGSLSGSYWSWIRQPPGKGLEWIGEINLSGSTNYNPSLKSRVTISVDTSKSQFSLTLRSVTAADTAVYYCARDYGGLDYWGQGTLVTVSS
VL: EIVLTQSPGTLSLSPGERATLSCRARQNVDSSYLAWYQQKPGQAPRLLIYGASSRATGIPDRFSGSGSGTDFTLTISRLEPEDFAVFYCQQYERSPWTFGQGTKVEIK
notes: mAb
B3: 194C10 (antibody, V domains shown)
VH: QVQLQQWGAGLLKPSETLSLTCAVSGGSFRYYYWSWIRQPPGKGLEWFGEINHSGSTNYNPSLKSRVTISIDTSKNQFSLKLRSVTAADTAVYYCARDYGAFDIWGQGTMVTVSS
VL: EIVLTQSPGTLSLSPGERATLSCRASPSVNSGYLAWYQQKPGQTPRLLIFGASSRATGIPDRFSASGSGADFTLTISRLEPEDFAVYFCQQYESSPWTFGQGTKVEIK
notes: mAb
B4: 193E7 (antibody, V domains shown)
VH: QVQLQQWGAGLLKPSETLSLTCAVYGGSFSGYFWTWIRQPPGKGLEWIGEINHSGSTNYNPSLKSRVTISVDTSKNQFSLKLSSVTAADTAVYYCARDYGADYWGQGTLVAVSA
VL: DIQMTQSPSSLSASVGDRVTITCRASQGIRNDLGWYQQKPGKAPKRLIYSASSLQRGVPSRFSGSGSGTEFTLTISSLQPEDFATYYCLQHKRYPLTFGGGTKVEIK
notes: mAb
B5: 190F8 (antibody, V domains shown)
VH: QVQLVESGGGVVQPGRSLRLSCAASGFTFSTYGMHWVRQAPGKGLEWVAVIWYDGSNKNYADSVKGRFTISRDNSKNTLYLQMNSLRAEDTAVYYCARDQGVGYDGLDVWGQGTTVTVSS
VL: DIQMTQSPSSLSASVGDRVTITCRTSQGIGNYLAWFQQKPGKAPKSLLYKASSLQSGVPSKFSGSGSGTDFTLTISSLQPEDFATYYCQQYMTYPLTFGGGTKVEIK
notes: Tested as hybridoma supernatant at normalized concentration
B6: 191G1 (antibody, V domains shown)
VH: B5 VH with T31S, K58E, N59H, Q100R, D105Y
VL: B5 VL with T25A, G30S, L48I, K50A, Q90H, M92L
notes: as for B5
B7: 191G10 (antibody, V domains shown)
VH: B5 VH with T31S
VL: B5 VL with N31K, A51V
notes: as for B5
B8: 198G3 (antibody, V domains shown)
VH: B5 VH with R19K, S56T, Y80C
VL: B5 VL with T5A, N31K, S56G
notes: as for B5
B9: 194C1 (antibody, V domains shown)
VH: B5 VH with T31S, K58E, N59H, D99N, Q100R, D105Y
VL: B5 VL with T25A, G30S, L48I, K50A, Q89L, Q90H, M92L
notes: as for B5
B10: 197G3 (antibody, V domains shown)
VH: B5 VH with A23V, T31S, Y32H, Q100P, G101S, L107M
VL: DIQMTQSPSSLSASVGDRVTITCRASQGIGNHLAWFQQKPGKAPKSLIYAASSLQSGVPSKFSGSRSGTDFSLTISSLQPEDFATYYCQQYSNYPVTFGPGTKVDIK
notes: as for B5
B11: 193E7 (antibody, V domains shown)
VH: B4 VH
VL: B4 VL
notes: as for B5
B12: 22G5 (antibody, V domains shown)
VH: EVQLLESGGGLVQPGGSLRLSCAASGFTFSSYAMNWVRQAPGMGLEWVSVISRSGGYTYYADSVKGRFTISRDNSKNTLYLQMNSLRAEDTAVYYCASRLAVAGSEAFDIWGQGTLVTVSS
VL: DIQMTQSPSSLSASVGDRVTITCRASQNISSYLNWYQQKQGKAPKLLIYAASSLQNGVPSRFSGRGSGTDFTLTISSLQPEDFATYYCQQSYRTPLFTFGPGTKVDFK
notes: as for B5
B13: 5E5 (antibody, V domains shown)
VH: QVQLVESGGGVVQPGRSLRLSCAASGFTFSNYVMHWVRQAPGKGLEWVAVIWYDGSNKYYADSVKGRFTISRDNSKNTLYLQMNSLRAEDTAVYYCTREVYSSGWYDYGMDVWGQGTTVTVSS
VL: B4 VL with S50A, R56S, K92Y, R93S, L96R, G100Q, I106V
notes: as for B5
B14: 54E9 (antibody, V domains shown)
VH: QVQLVQSGAEVKKPGASVKVSCKASGYTFNSYGISWVRLAPGQGLEWMGWISAYNGNTKNAQKLQGRVTMTTDTSTSTAYMELRSLRSDDTAVYYCARHDFWSGYYKGMDVWGQGTTVTVSS
VL: not shown
notes: as for B5
B15: 6G7 (antibody, V domains shown)
VH: QVQLVESGGGVVQPGRSLRLSCAASGFTFSSYGMHWVRQTPGKGLEWVAIISYVGKNKYYADSVKGRFTISRDNSKNTLYLQMNSLRAEDTAVYYCARRGNSYGGYGMDVWGQGTTVTVSS
VL: DIQMTQSPSSRSASVGDRVTITCQASQDISNYLNWCQQKPGKALKLLIYDASTLETGVPSRFSGSGSGTDFTFTISSVQPEDIATYYCQQYDNVPITFGQGTRLEIK
notes: as for B5

biological target: T1, human ASGR-1 mutant construct H203 (human, UniProt P07306 1-291); test: FACS ratio: 65C12 geomean / this mAb geomean
T1 construct: Arg/Glu scanning: non-arginine residues were changed to arginine; Transiently expressed on CHO-S cells
T1 sequence: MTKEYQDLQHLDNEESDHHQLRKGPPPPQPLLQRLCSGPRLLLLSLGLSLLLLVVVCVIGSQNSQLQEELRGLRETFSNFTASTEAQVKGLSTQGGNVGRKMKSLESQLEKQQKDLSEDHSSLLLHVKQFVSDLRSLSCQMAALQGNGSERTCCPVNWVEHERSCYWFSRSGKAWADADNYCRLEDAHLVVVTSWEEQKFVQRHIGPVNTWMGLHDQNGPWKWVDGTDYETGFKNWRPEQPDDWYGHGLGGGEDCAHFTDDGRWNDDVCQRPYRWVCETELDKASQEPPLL
Summary of the method: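 CHO-S cells transiently expressing wild-type or point-mutant hASGR-1 were stained with antibody at 5 ug/ml for 1 h at 4 °C. Bound antibody was detected by Fc-specific Alexa 647 secondary plus 7-AAD and read by flow cytometry. Ratio is 65C12 geomean divided by test mAb geomean, normalizing for expression.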

| Binder | Expression Normalization to mAb 65C12 |
| --- | --- |
| B1 | 3.25 |
| B2 | 1.78 |
| B3 | 1.95 |
| B4 | 1.87 |

biological target: T2, Human ASGR-2 (human, UniProt P07307 1-311); test: FACS on transfected HEK 293 cells; binding = signal at least 2x irrelevant IgG
T2 construct: Expressed on HEK 293 cells; cDNA GenBank NM_080913.3; also called huASGR-2; hASGR-2
T2 sequence: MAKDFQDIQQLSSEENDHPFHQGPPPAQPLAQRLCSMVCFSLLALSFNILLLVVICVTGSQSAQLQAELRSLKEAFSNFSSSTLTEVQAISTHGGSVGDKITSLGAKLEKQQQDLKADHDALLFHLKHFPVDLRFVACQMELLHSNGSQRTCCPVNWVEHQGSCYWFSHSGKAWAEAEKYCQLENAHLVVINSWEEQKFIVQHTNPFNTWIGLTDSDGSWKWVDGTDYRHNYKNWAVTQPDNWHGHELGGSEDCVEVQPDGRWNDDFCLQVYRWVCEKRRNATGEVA
Description: (§1) Human ASGR-1-specific, ligand competing antibody samples were tested for binding to ASGR-1 from other species (cynomologus monkey ASGR-1, mouse ASGR-1, rat ASGR-1, dog ASGR-1, and pig ASGR-1) as well as to human ASGR-2 in FACS binding assays at normalized antibody concentrations. For cell-based assays, HEK 293 cells expressing the appropriate antigen of interest were mixed with antibody sample or controls, incubated for 1 hour at 4° C., and then washed twice. Cells with bound antibody were then incubated with Alexa Fluor® 647 IgG Fc fragment-specific detection antibody and 7-AAD viability stain for 15 minutes at 4° C., washed once and resuspended in FACS buffer. Samples were analyzed using a BD Accuri™ Flow Cytometer and an Intellicyt HyperCyt Autosampler. As a negative control, supernatants and controls were also screened against HEK 293 cells transfected with empty parental vector. […] For membrane-prep binding assays, ASGR-1 species specific membrane preps were used to coat LumAvidin® microspheres (beads) and tested for binding to selected hybridoma supernatants or controls. Briefly, ASGR-1 species specific membrane preps were incubated with streptavidin-coated LumAvidin® beads for 45 minutes in the dark at room temperature and washed twice. Beads were resuspeneded in FACS buffer containing Stabilguard®. Antigen-bound beads were then incubated with normalized antibody sample for 1 hour in the dark at room temperature, washed twice, incubated with Alexa Fluor® 488 IgG Fc fragment-specific detection antibody for 15 minutes in the dark at room temperature, washed once and finally resuspended in FACS buffer. Samples were analyzed using an Intellicyt iQue™ Screener Platform. FACS buffer supplemented with 1 mM Calcium Chloride was used in all steps. As a negative control, supernatants and controls were also screened against a non-ASGR-1 antigen membrane prep coated on the LumAvidin® beads.

| Binder | binding result |
| --- | --- |
| B5 | no binding |
| B6 | no binding |
| B7 | no binding |
| B8 | no binding |
| B9 | no binding |
| B10 | no binding |
| B11 | no binding |
| B12 | no binding |
| B13 | no binding |
| B14 | no binding |

Biological target: T3, Pig ASGR-1 (pig)
T3 construct: Expressed on HEK 293 cells or as membrane prep on beads; cDNA GenBank NM_001244458
T3 chain: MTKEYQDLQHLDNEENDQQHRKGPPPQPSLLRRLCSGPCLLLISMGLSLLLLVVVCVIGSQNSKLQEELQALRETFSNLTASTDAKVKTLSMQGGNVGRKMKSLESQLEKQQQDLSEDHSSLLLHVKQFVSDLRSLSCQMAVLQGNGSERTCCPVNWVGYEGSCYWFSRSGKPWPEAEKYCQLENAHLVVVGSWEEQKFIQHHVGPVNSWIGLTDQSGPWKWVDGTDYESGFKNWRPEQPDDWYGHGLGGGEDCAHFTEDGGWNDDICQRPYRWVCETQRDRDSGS
Test: FACS on transfected HEK 293 cells or membrane preps on beads; Y = signal at least 2x irrelevant IgG
Description: as §1

| Binder | binding result |
| --- | --- |
| B5 | binds |
| B6 | binds |
| B7 | binds |
| B8 | binds |
| B9 | binds |
| B10 | binds |

Biological target: T4, Cyno ASGR-1 (cynomolgus monkey, UniProt P07306 1-291 (human entry))
T4 construct: Expressed on HEK 293 cells or as membrane prep on beads; cDNA from XP_005582755; also called cynomologus monkey ASGR-1
T4 chain: T1 sequence with R22G, P30S, Q33R, S64A, E68R, F77L, T152A, R203H
Test: as above
Description: as §1

| Binder | binding result |
| --- | --- |
| B5 | binds |
| B6 | binds |
| B7 | binds |
| B8 | binds |
| B9 | binds |
| B10 | binds |
| B11 | binds |
| B12 | binds |
| B13 | binds |
| B14 | binds |
| B15 | binds |
